From US20180155451A1 (published 2018)

These binders were tested against T1, FcγRIa extracellular domain with C-terminal His tag (human, UniProt P12314 16-292) (assay: SPR (Biacore), relative FcγRIa binding, GpH7-A5/GpH7-B3/GpL16-k0 (HeCon Ab) = 100).
T1 construct: extracellular domain; soluble analyte in Biacore; also called FcgRI; CD64
T1 sequence (P12314 16-292): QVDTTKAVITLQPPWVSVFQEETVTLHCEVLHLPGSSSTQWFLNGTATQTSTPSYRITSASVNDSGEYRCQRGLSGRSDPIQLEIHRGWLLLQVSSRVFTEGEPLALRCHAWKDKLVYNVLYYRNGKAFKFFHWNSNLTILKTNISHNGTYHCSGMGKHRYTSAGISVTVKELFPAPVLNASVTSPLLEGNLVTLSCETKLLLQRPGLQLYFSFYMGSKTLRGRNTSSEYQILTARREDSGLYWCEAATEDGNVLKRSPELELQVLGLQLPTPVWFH

Binder	He/Con_1a
GpH7-A5/GpH7-B3 variant K326_06M/GpL16-k0 (antibody, human IgG1, kappa, heterodimerized antibody, mutation in one H chain only; also called K326_06M He Ab) heavy 1: not shown heavy 2: not shown light: DIVMTQSPLSLPVTPGEPASISCQASESLVHSNRNTYLHWYLQKPGQSPQLLIYKVSNRFSGVPDRFSGSGSGTDFTLKISRVEAEDVGVYYCSQNTHVPPTFGQGTKVEIERTVAAPSVFIFPPSDEQLKSGTASVVCLLNNFYPREAKVQWKVDNALQSGNSQESVTEQDSKDSTYSLSSTLTLSKADYEKHKVYACEVTHQGLSSPVTKSFNRGEC	102 % of control
GpH7-A5/GpH7-B3 variant K326_07I/GpL16-k0 (antibody, human IgG1, kappa, heterodimerized antibody, mutation in one H chain only; also called K326_07I He Ab) heavy 1: not shown heavy 2: not shown light: DIVMTQSPLSLPVTPGEPASISCQASESLVHSNRNTYLHWYLQKPGQSPQLLIYKVSNRFSGVPDRFSGSGSGTDFTLKISRVEAEDVGVYYCSQNTHVPPTFGQGTKVEIERTVAAPSVFIFPPSDEQLKSGTASVVCLLNNFYPREAKVQWKVDNALQSGNSQESVTEQDSKDSTYSLSSTLTLSKADYEKHKVYACEVTHQGLSSPVTKSFNRGEC	101 % of control
GpH7-A5/GpH7-B3 variant K326_19Q/GpL16-k0 (antibody, human IgG1, kappa, heterodimerized antibody, mutation in one H chain only; also called K326_19Q He Ab) heavy 1: not shown heavy 2: not shown light: DIVMTQSPLSLPVTPGEPASISCQASESLVHSNRNTYLHWYLQKPGQSPQLLIYKVSNRFSGVPDRFSGSGSGTDFTLKISRVEAEDVGVYYCSQNTHVPPTFGQGTKVEIERTVAAPSVFIFPPSDEQLKSGTASVVCLLNNFYPREAKVQWKVDNALQSGNSQESVTEQDSKDSTYSLSSTLTLSKADYEKHKVYACEVTHQGLSSPVTKSFNRGEC	102 % of control
GpH7-A5/GpH7-B3 variant K334_07I/GpL16-k0 (antibody, human IgG1, kappa, heterodimerized antibody, mutation in one H chain only; also called K334_07I He Ab) heavy 1: not shown heavy 2: not shown light: DIVMTQSPLSLPVTPGEPASISCQASESLVHSNRNTYLHWYLQKPGQSPQLLIYKVSNRFSGVPDRFSGSGSGTDFTLKISRVEAEDVGVYYCSQNTHVPPTFGQGTKVEIERTVAAPSVFIFPPSDEQLKSGTASVVCLLNNFYPREAKVQWKVDNALQSGNSQESVTEQDSKDSTYSLSSTLTLSKADYEKHKVYACEVTHQGLSSPVTKSFNRGEC	104 % of control
GpH7-A5/GpH7-B3 variant K326_08L/GpL16-k0 (antibody, human IgG1, kappa, heterodimerized antibody, mutation in one H chain only; also called K326_08L He Ab) heavy 1: not shown heavy 2: not shown light: DIVMTQSPLSLPVTPGEPASISCQASESLVHSNRNTYLHWYLQKPGQSPQLLIYKVSNRFSGVPDRFSGSGSGTDFTLKISRVEAEDVGVYYCSQNTHVPPTFGQGTKVEIERTVAAPSVFIFPPSDEQLKSGTASVVCLLNNFYPREAKVQWKVDNALQSGNSQESVTEQDSKDSTYSLSSTLTLSKADYEKHKVYACEVTHQGLSSPVTKSFNRGEC	100 % of control
GpH7-A5/GpH7-B3 variant L328_15Y/GpL16-k0 (antibody, human IgG1, kappa, heterodimerized antibody, mutation in one H chain only; also called L328_15Y He Ab) heavy 1: not shown heavy 2: not shown light: DIVMTQSPLSLPVTPGEPASISCQASESLVHSNRNTYLHWYLQKPGQSPQLLIYKVSNRFSGVPDRFSGSGSGTDFTLKISRVEAEDVGVYYCSQNTHVPPTFGQGTKVEIERTVAAPSVFIFPPSDEQLKSGTASVVCLLNNFYPREAKVQWKVDNALQSGNSQESVTEQDSKDSTYSLSSTLTLSKADYEKHKVYACEVTHQGLSSPVTKSFNRGEC	102 % of control
GpH7-A5/GpH7-B3 variant K326_20W/GpL16-k0 (antibody, human IgG1, kappa, heterodimerized antibody, mutation in one H chain only; also called K326_20W He Ab) heavy 1: not shown heavy 2: not shown light: DIVMTQSPLSLPVTPGEPASISCQASESLVHSNRNTYLHWYLQKPGQSPQLLIYKVSNRFSGVPDRFSGSGSGTDFTLKISRVEAEDVGVYYCSQNTHVPPTFGQGTKVEIERTVAAPSVFIFPPSDEQLKSGTASVVCLLNNFYPREAKVQWKVDNALQSGNSQESVTEQDSKDSTYSLSSTLTLSKADYEKHKVYACEVTHQGLSSPVTKSFNRGEC	103 % of control
GpH7-A5/GpH7-B3 variant K334_02A/GpL16-k0 (antibody, human IgG1, kappa, heterodimerized antibody, mutation in one H chain only; also called K334_02A He Ab) heavy 1: not shown heavy 2: not shown light: DIVMTQSPLSLPVTPGEPASISCQASESLVHSNRNTYLHWYLQKPGQSPQLLIYKVSNRFSGVPDRFSGSGSGTDFTLKISRVEAEDVGVYYCSQNTHVPPTFGQGTKVEIERTVAAPSVFIFPPSDEQLKSGTASVVCLLNNFYPREAKVQWKVDNALQSGNSQESVTEQDSKDSTYSLSSTLTLSKADYEKHKVYACEVTHQGLSSPVTKSFNRGEC	106 % of control
GpH7-A5/GpH7-B3 variant K334_18N/GpL16-k0 (antibody, human IgG1, kappa, heterodimerized antibody, mutation in one H chain only; also called K334_18N He Ab) heavy 1: not shown heavy 2: not shown light: DIVMTQSPLSLPVTPGEPASISCQASESLVHSNRNTYLHWYLQKPGQSPQLLIYKVSNRFSGVPDRFSGSGSGTDFTLKISRVEAEDVGVYYCSQNTHVPPTFGQGTKVEIERTVAAPSVFIFPPSDEQLKSGTASVVCLLNNFYPREAKVQWKVDNALQSGNSQESVTEQDSKDSTYSLSSTLTLSKADYEKHKVYACEVTHQGLSSPVTKSFNRGEC	105 % of control
GpH7-A5/GpH7-B3 variant K334_16H/GpL16-k0 (antibody, human IgG1, kappa, heterodimerized antibody, mutation in one H chain only; also called K334_16H He Ab) heavy 1: not shown heavy 2: not shown light: DIVMTQSPLSLPVTPGEPASISCQASESLVHSNRNTYLHWYLQKPGQSPQLLIYKVSNRFSGVPDRFSGSGSGTDFTLKISRVEAEDVGVYYCSQNTHVPPTFGQGTKVEIERTVAAPSVFIFPPSDEQLKSGTASVVCLLNNFYPREAKVQWKVDNALQSGNSQESVTEQDSKDSTYSLSSTLTLSKADYEKHKVYACEVTHQGLSSPVTKSFNRGEC	105 % of control
GpH7-A5/GpH7-B3 variant K334_19Q/GpL16-k0 (antibody, human IgG1, kappa, heterodimerized antibody, mutation in one H chain only; also called K334_19Q He Ab) heavy 1: not shown heavy 2: not shown light: DIVMTQSPLSLPVTPGEPASISCQASESLVHSNRNTYLHWYLQKPGQSPQLLIYKVSNRFSGVPDRFSGSGSGTDFTLKISRVEAEDVGVYYCSQNTHVPPTFGQGTKVEIERTVAAPSVFIFPPSDEQLKSGTASVVCLLNNFYPREAKVQWKVDNALQSGNSQESVTEQDSKDSTYSLSSTLTLSKADYEKHKVYACEVTHQGLSSPVTKSFNRGEC	106 % of control
